The source of these data is patent publication US20250346679A1 (INVOX PHARMA, published 2025).

In test [1] the target is T1, FcgRIIIA 158F on CHO cells (UniProt P08637 17-254, limits assumed).
T1 construct: whole, on cells; also called CHO.FcγRIIIA.158F
The test is described as follows: flow cytometry on CHO cells over-expressing FcγRIIIA 158F, anti-human IgG AF-488 detection. The source says: (§1) However, in order to circumnavigate potential off-target effects such as systemic CD137 activation due to crosslinking by Fcγ receptor binding and to decrease the possibility of inducing ADCC of immune cells, for example T cells, that express both targets, it was decided to decrease the Fcγ receptor binding ability of the anti-human CD137/PD-L1 mAb² by introduction of a LALA mutation in the CH2 domain (see Example 3.2 for details on the LALA format).
(§2) Briefly, CHO.FcγRIIA.131H, […], CHO.FcγRIIIA.158F, CHO.FcγRIIIA.158V, CHO.FcγRIIB, or CHO.WT suspensions were prepared in FACS buffer (DPBS containing (Gibco, 14190-094) containing 0.5% BSA (Sigma, A7906)) and seeded at 1×10⁵ cell/well in 100 μl in round bottomed 96-well plates (VWR, 734-1797). […] The washed cells were resuspended in the diluted antibody mixture, incubated at 4° C. for 30 minutes, and then washed once in FACS buffer. […] The geometric mean fluorescence intensity (GMFI) values were plotted vs the log concentration of antibody and the resulting curves were fitted using the log (agonist) vs response equation in GraphPad Prism.
In general terms: In flow cytometry, cells or beads pass a laser one at a time.

The next test addresses T2, FcgRIIB on CHO cells (UniProt P31994 43-310).
T2 construct: whole, on cells; also called CHO.FcγRIIB
T2 sequence (looked up): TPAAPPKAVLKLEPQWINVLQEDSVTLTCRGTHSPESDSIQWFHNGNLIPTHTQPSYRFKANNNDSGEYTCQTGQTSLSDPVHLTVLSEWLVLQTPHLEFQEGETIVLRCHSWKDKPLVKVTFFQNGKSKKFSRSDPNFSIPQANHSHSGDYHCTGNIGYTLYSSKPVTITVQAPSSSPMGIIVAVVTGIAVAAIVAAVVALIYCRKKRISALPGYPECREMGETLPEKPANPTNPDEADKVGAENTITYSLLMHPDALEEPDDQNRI
The test is described as follows: flow cytometry on CHO cells over-expressing FcγRIIB, anti-human IgG AF-488 detection.
Description: as §1, §2

The target in test [2] is T3, FcgRIIA 131H on CHO cells (UniProt P12318 34-317, limits assumed).
T3 construct: whole, on cells; also called CHO.FcγRIIA.131H
T3 sequence (looked up): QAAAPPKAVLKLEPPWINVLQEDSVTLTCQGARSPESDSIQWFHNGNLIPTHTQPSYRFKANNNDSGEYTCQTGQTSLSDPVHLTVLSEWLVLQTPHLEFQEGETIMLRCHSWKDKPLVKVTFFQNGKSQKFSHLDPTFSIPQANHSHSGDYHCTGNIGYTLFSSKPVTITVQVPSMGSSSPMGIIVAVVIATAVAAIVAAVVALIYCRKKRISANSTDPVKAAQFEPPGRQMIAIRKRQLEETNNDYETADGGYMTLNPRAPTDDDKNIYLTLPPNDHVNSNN
Put plainly: flow cytometry on CHO cells over-expressing FcγRIIA 131H, anti-human IgG AF-488 detection.
Description: as §1, §2

In test [3] the target is T4, FcgRIIIA 158V on CHO cells (UniProt P08637 17-254).
T4 construct: whole, on cells; also called CHO.FcγRIIIA.158V
Put plainly: flow cytometry on CHO cells over-expressing FcγRIIIA 158V, anti-human IgG AF-488 detection.
Description: as §1, §2

The target of test [4] is human PD-L1, cell-surface (human, UniProt Q9NZQ7 19-290). Put plainly: cell-based or functional assay.
The target of test [5] is T5, hPD-L1-rCD4-His (human).
T5 construct: also called human PD-L1-rCD4-His; hu-PD-L1-rCD4-His
The test is described as follows: SPR. On the technique in general: SPR reads the build-up and loss of mass on a sensor chip optically.

A further test has as its target T6, Cyno PD-L1-rCD4-His (cynomolgus, UniProt Q9NZQ7 19-238 (human entry)).
T6 construct: also called cynomolgus PD-L1-rCD4-His; not shown: rat CD4 domains 3 and 4 and His tag
The test is described as follows: SPR.

Test [6] addresses T5, hPD-L1-rCD4-His. The test is described as follows: SPR, culture supernatants.
For test [7], the target named is mouse CD137, cell-surface (mouse, UniProt P20334 24-256). Put plainly: cell-based or functional assay.
The target in test [8] is T7, cynomolgus CD137, cell-surface (cynomolgus, UniProt Q07011 24-255 (human entry)).
T7 construct: also called DO11.10.cCD137; CD137 on cynomolgus T cells
T7 chain: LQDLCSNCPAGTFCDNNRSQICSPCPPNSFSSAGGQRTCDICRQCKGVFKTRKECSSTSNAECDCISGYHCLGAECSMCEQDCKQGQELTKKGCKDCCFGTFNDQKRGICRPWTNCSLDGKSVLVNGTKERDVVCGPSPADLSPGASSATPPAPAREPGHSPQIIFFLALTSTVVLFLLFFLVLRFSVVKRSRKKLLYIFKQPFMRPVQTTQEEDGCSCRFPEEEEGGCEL
The test is described as follows: flow cytometry on DO11.10.cCD137. The procedure:
(§3) Non-specific binding was also assessed by testing binding to DO11.10 cells lacking CD137 expression.
(§4) Briefly, DO11.10, DO11.10.hCD137 or DO11.10.cCD137 suspensions were prepared in FACS buffer (DPBS containing (Gibco, 14190-094) containing 0.5% BSA (Sigma, A7906)) and seeded at 1×10⁵ cell/well in 100 μl in round bottomed 96-well plates (VWR, 734-1797). […] The washed cells were resuspended in the diluted antibody mixture, incubated at 4° C. for 30 minutes, and then washed once in FACS buffer. […] Dead cells were excluded and the fluorescence in the APC channel (638 nm 660/20) was measured. The geometric mean fluorescence intensity (GMFI) values were plotted vs the log concentration of antibody and the resulting curves were fitted using the log (agonist) vs response equation in GraphPad Prism.

Test [9] addresses T8, human CD137, cell-surface (human, UniProt Q07011 24-255). The test is described as follows: cell-based or functional assay.
Test [10] addresses T8, human CD137, cell-surface. Put plainly: flow cytometry on DO11.10.hCD137; DO11.10 cells overexpressing human CD137 (DO11.10.hCD137). The procedure: as §3, §4

T5 sequence (chain, as listed by the source): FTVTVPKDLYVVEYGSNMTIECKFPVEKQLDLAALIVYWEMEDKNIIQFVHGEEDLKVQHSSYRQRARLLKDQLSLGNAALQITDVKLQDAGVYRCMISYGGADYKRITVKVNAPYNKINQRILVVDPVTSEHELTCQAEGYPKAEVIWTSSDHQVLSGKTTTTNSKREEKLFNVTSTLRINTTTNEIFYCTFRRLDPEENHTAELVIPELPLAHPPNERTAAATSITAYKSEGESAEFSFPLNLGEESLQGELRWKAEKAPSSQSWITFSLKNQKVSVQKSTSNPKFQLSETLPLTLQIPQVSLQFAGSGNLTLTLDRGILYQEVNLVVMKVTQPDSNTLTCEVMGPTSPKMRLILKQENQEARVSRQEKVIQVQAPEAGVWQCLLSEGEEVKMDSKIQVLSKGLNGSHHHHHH
T6 sequence (Q9NZQ7 other isoform, or with tags, fused parts or gaps): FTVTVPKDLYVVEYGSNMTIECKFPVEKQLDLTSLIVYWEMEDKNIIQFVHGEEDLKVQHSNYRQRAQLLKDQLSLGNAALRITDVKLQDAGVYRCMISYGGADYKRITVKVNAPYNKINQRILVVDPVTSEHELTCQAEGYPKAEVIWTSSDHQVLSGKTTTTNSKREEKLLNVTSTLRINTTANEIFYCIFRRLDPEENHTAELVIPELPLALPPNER
T1 sequence (P08637 17-254 limits assumed): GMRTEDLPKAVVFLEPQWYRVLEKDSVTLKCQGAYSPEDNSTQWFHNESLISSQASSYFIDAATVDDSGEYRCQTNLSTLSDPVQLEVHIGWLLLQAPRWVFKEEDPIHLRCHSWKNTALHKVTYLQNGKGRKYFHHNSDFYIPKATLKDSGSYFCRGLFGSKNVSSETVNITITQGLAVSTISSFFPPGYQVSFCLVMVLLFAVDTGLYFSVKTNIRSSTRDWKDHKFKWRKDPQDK
T4 sequence (P08637 17-254 F176V limits assumed): as the sequence (P08637 17-254 limits assumed) above, with F160V counted along it
Sequence of human PD-L1, cell-surface (Q9NZQ7 19-290): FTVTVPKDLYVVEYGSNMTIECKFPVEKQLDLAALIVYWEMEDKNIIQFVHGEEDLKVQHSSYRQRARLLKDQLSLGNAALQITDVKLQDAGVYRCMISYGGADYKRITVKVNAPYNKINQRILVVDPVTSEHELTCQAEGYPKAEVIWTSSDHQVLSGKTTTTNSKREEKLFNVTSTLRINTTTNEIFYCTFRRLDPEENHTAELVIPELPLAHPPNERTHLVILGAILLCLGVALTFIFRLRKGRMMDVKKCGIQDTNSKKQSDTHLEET
Sequence of mouse CD137, cell-surface (P20334 24-256): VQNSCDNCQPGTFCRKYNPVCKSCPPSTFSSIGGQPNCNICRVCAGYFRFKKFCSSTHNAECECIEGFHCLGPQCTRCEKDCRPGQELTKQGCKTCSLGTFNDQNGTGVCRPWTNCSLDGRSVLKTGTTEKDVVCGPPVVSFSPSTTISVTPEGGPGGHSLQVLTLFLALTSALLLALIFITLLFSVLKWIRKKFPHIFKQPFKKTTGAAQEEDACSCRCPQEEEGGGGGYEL

B1: G1/4420 (antibody, human IgG1, kappa)
heavy: not shown
light: DVVMTQTPLSLPVSLGDQASISCRSSQSLVHSNGNTYLRWYLQKPGQSPKVLIYKVSNRFSGVPDRFSGSGSGTDFTLKISRVEAEDLGVYFCSQSTHVPWTFGGGTKLEIKRTVAAPSVFIFPPSDEQLKSGTASVVCLLNNFYPREAKVQWKVDNALQSGNSQESVTEQDSKDSTYSLSSTLTLSKADYEKHKVYACEVTHQGLSSPVTKSFNRGEC
Take B1: the binding result (in [1]; in the test with FcgRIIB on CHO cells; in test [2]; in [3]) was “binds” each time.

B2: G1/280_02_G02 (antibody, human IgG1, V domains shown)
VH: EVQLVQSGAEVKRPGASVKVSCKASGYTFTSYGISWVRQAPGQGLEWMGWISAYNGNTNYAQKLQGRVTMTTDTSTSTAYMELRSLRSDDTAVYYCARDLFPTIFGVSYYYYWGQGTLVTVSS
VL: QSALTQPASVSGSPGQSITISCTGTSSDVGGYNSVSWYQQFPGKAPKLMIFEVTNRPSGVSDRFSGSKSDNTASLTISGLQAEDEAEYYCSSFKRGSTLVVFG
For B2, in test [4], the “EC50, luciferase, Jurkat-NFAT PD-1 / PD-L1 cell co-culture assay” value worked out at 4.2 nM.

B3: G1/929_01_A02 (antibody, IgG1, V domains shown)
VH: EVQLVQSGAEVKRPGASVKVSCKASGYTFTSYGISWVRQAPGQGLEWMGWISAYSGGTNYAQKLQGRVTMTTDTSTSTAYMELRSLRSDDTAVYYCARDLFPTIFGVSYYYYWGQGTLVTVSS
VL: DIQMTQSPSTLSASVRDRVIITCRASQSIGNRLAWYQHKPGKAPKLLIYEASTSETGVPSRFSGSGSGTDFTLTISSLQPEDFATYYCQQSYSTPYTFGQGTKLEIK
notes: IgG1 without LALA
For B3, the “fold lower affinity than G1-AA/E12v2” value in the test with hPD-L1-rCD4-His [5] and with Cyno PD-L1-rCD4-His was above 10 fold throughout.

B4: G1/929_01_A08 (antibody, IgG1, V domains shown)
VH: EVQLVQSGAEVKRPGASVKVSCKASGYTFTSYGISWVRQAPGQGLEWMGWISAYSGGTNYAQKLQGRVTMTTDTSTSTAYMELRSLRSDDTAVYYCARDLFPTIFGVSYYYYWGQGTLVTVSS
VL: DIQMTQSPSTLSASVGDRVTITCRASQSISGRLAWYQQKPGKAPNLLIYEASNLESGVPSRFSGSGSGTEFTLTISSLQPEDFATYYCQQSYSTPRVTFGQGTKVEIK
notes: IgG1 without LALA; SGGT variant of G1/894_08_E05, became G1-AA/E05v2 with LALA
Turning to B4, the binding result in the test with hPD-L1-rCD4-His [6] is “binds”.

B5: G1/929_01_A11 (antibody, IgG1, V domains shown)
VH: EVQLVQSGAEVKRPGASVKVSCKASGYTFTSYGISWVRQAPGQGLEWMGWISAYSGGTNYAQKLQGRVTMTTDTSTSTAYMELRSLRSDDTAVYYCARDLFPTIFGVSYYYYWGQGTLVTVSS
VL: DIQMTQSPSTLSASVGDRVTITCRASQSISGRLAWYQQKPGKAPNLLIYEASNLESGVPSRFSGSGSGTEFTLTISSLQPEDFATYYCQQSYSWPRTFGQGTKVEIK
notes: IgG1 without LALA
Take B5: the binding result in the test with hPD-L1-rCD4-His [6] is reported as “binds”.

B6: FS22m-063-AA/HeID1.3 (bispecific antibody, human IgG1, kappa, L234A L235A)
heavy: QVQLQESGPGLVRPSQTLSLTCTVSGSTFSGYGVNWVRQPPGRGLEWIGMIWGDGNTDYNSALKSRVTMLVDTSKNQFSLRLSSVTAADTAVYYCARERDYRLDYWGQGSLVTVSSASTKGPSVFPLAPSSKSTSGGTAALGCLVKDYFPEPVTVSWNSGALTSGVHTFPAVLQSSGLYSLSSVVTVPSSSLGTQTYICNVNHKPSNTKVDKKVEPKSCDKTHTCPPCPAPEAAGGPSVFLFPPKPKDTLMISRTPEVTCVVVDVSHEDPEVKFNWYVDGVEVHNAKTKPREEQYNSTYRVVSVLTVLHQDWLNGKEYKCKVSNKALPAPIEKTISKAKGQPREPQVYTLPPSRDEPYWSYVSLTCLVKGFYPSDIAVEWESNGQPENNYKTTPPVLDSDGSFFLYSKLTVMNYRWELGNVFSCSVMHEALHNHYTQKSLSLSPG
light: DIQMTQSPASLSASVGETVTITCRASGNIHNYLAWYQQKQGKSPQLLVYNAKTLADGVPSRFSGSGSGTQYSLKINSLQPEDFGSYYCQHFWSTPRTFGGGTKLEIKRTVAAPSVFIFPPSDEQLKSGTASVVCLLNNFYPREAKVQWKVDNALQSGNSQESVTEQDSKDSTYSLSSTLTLSKADYEKHKVYACEVTHQGLSSPVTKSFNRGEC
On to B6, for which, in [7], the “Emax (pg/ml), mIFN-γ release, OT-1 CD8+ T cell activation assay (EC50 n/a)” value amounted to 3850 pg/mL.

B7: FS22-172-003-AA/HeID1.3 (bispecific antibody, human IgG1, kappa, L234A L235A)
heavy: QVQLQESGPGLVRPSQTLSLTCTVSGSTFSGYGVNWVRQPPGRGLEWIGMIWGDGNTDYNSALKSRVTMLVDTSKNQFSLRLSSVTAADTAVYYCARERDYRLDYWGQGSLVTVSSASTKGPSVFPLAPSSKSTSGGTAALGCLVKDYFPEPVTVSWNSGALTSGVHTFPAVLQSSGLYSLSSVVTVPSSSLGTQTYICNVNHKPSNTKVDKKVEPKSCDKTHTCPPCPAPEAAGGPSVFLFPPKPKDTLMISRTPEVTCVVVDVSHEDPEVKFNWYVDGVEVHNAKTKPREEQYNSTYRVVSVLTVLHQDWLNGKEYKCKVSNKALPAPIEKTISKAKGQPREPQVYTLPPSRDELPYIIPPYNQVSLTCLVKGFYPSDIAVEWESNGQPENNYKTTPPVLDSDGSFFLYSKLTVGADRWLEGNVFSCSVMHEALHNHYTQKSLSLSPG
light: DIQMTQSPASLSASVGETVTITCRASGNIHNYLAWYQQKQGKSPQLLVYNAKTLADGVPSRFSGSGSGTQYSLKINSLQPEDFGSYYCQHFWSTPRTFGGGTKLEIKRTVAAPSVFIFPPSDEQLKSGTASVVCLLNNFYPREAKVQWKVDNALQSGNSQESVTEQDSKDSTYSLSSTLTLSKADYEKHKVYACEVTHQGLSSPVTKSFNRGEC
notes: mock mAb^2 with LALA
The EC50 is the concentration giving half of the maximal effect. Low values mean an effect from little substance, high ones a need for much substance. Consider B7, for which the EC50 in [8] was 9.09 nM; in [10] it was 6.25 nM. The “Emax (pg/ml), IFN-γ release, human MLR (EC50 N/A)” value in test [9] stood at 3570 pg/mL.
